In the nanobody polyreactivity screen of Harvey et al. (2022):

Experiment: yeast display, Sf9 membrane polyspecificity reagent, FACS + sequencing; frameworks hold sequencing errors
How it was run: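 A synthetic nanobody library was expressed on Saccharomyces cerevisiae BJ5465 by galactose induction for 36–48 hours. The library was stained for 1 hour at 4 °C with 10% biotinylated, detergent-solubilized Sf9 membrane reagent and enriched with streptavidin microbeads before FACS. Low and high (top ~1%) gates were set on anti-HA fluorescence for expression and streptavidin fluorescence for reagent binding, and each polyreactivity label reflects the gate of origin.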

Sequence	polyreactivity (PSR sort gate)
QVQLVESAGGLVQAGGSLRLSCAASGYIYGYYVMGWNRQAPGKERELVAAISGRGGRTYYADSVKGRFTISRDNAKNTVYLQMNSLKPEDTAVYYCAAADLPGTMYYWGQGTQVTVSS	high polyreactivity
QVQHVESGGGLVQAGGSLRLSCAASGGTFGDYAMGWSRQAPGKEREFVASITRSVSNTYYADSVKGRFTISRDNAKNTVYLQMNSLKPEDTAVYYCNADRWYPWRYIMDYWGQGTQVTVSS	low polyreactivity
QVQLVESGGGLVQAGGSLRLSCAASGIIFNYYTMGWYRQAPGKERELVAVITSRGSSPYYADSVKGRFTISRDNAKNTVNLQMNSLKPDDTAVYYCAKVRPYLDTNEYYYWGQGTQVTVSS	high polyreactivity
QVQLVESGGGLVQAGGSLRLSCAASGRIFYFYAMGWYRQAPGKERELVASISYSGGNTYYADSVKGRFTISRDNAKNTVYLQMNSLKPEDNAVYYCNVLPNTGARGYYYWGQGTQVTVSS	low polyreactivity
QVQLVESGGGLVQAVGSLRLSCAASGLTFYSNAMGWYRQAPGKERELVATISQDGGRTYADSLKGRFTISRDNAKNTVYLQMNSLKPEDTAVYYCAKVRERINYDYWGQGTQVTVSS	low polyreactivity
QVQLGESGGGLVQAGGSLRLSCAASGGTFSQYAMGWYRHAPGKERELVARISRRGGSTSYADSVKGRFTISRDNAKNTVYLQMNSLKPEDTAVYYCAKDAPSVYPGRFGNTGGYAYDYWGQGTQVTVSS	high polyreactivity
QVQLVESGGGLVQAGGSLRLSCAASGGTQRYYAMGWYRQAPGKERDFVASISRSGGSTYYADTVKGRFTISRDNAKNTVYLQMNSLKPEDTAVYYCAAYWSPGYTTRRGYWGQGTQVTVSS	high polyreactivity
QVQLVESGGGLVQAGGSLRLSCAASGGTIGSNTMGWYRQAPGKERELVAAITSGVSTNYADSVKGRFTISRDNAKNTVYLQMISLKPEDNAVYYCAKVLWSEEYETIITSYGFDYWGQGTQVTVSS	low polyreactivity
QVQLVESGGGLVQAGGSLRLSCAASGRILYYYAMGWYRQAPGKERELVAAINSSGGSTYYADSVKGRFTISRDNAKNTVYLQMNSLKPEDTAVYYCAALRGIVLWYPPSYFRYDYWGQGTQVTVSS	high polyreactivity
QVQLVESGGGLVQAGGSLRLSCAASGRIFAPNAMGWYRQAPGKERELVAAISFSGDSTSYADSVKGRFTISRDNAKNTVYLQMNSLKPEDTAVYYCATDRRVQYPLGPSYDYDYWGQGTQVTVSS	low polyreactivity
QVQLVESGGGLVQAGGSLRLSCAASGLIIDGYAMGWYRQAPGKERELVATITVSGTSTYYADSVKGRFTISRDNAKNTVYLQMNSLKPEDTAVYYCATDRNYGYYFVEYDHDYWGQGTQVTVSS	low polyreactivity
QVQLVESGGGLVQAGGSLRLSCAASGSIFAGYTMGWYRQAPGKERELVATITRSGTSTFYADSVKGRFTISRDNAKNTVYLQMNSLKPEDTAVYYCAADVTARYDYWGQGTQVTVSS	high polyreactivity
QVHLVESGGGLVPAGGSLRLSCAASGGIFIFYAMGWYRQAPGKERELVAAISNVSSTNYADSVKGRFTISRDNAKNTVYLQMNSLKPEDTAVYYCNAVGVPSEYYSWGQGTQVTVSS	low polyreactivity
QVQLVESGGGLVQAGGSLRLSCAASGFTLRAYAMGWYRQAPGKERELVAAITQRGTGTYYADSVKGRFTISRDNAKKTVFLQMNSLKPEDTAVYYCAAEAPRWSNYYYWGQGTQVSVSS	high polyreactivity
QDQHVESGGGLVQAGGSLRLSCDASGFIFPYYVMGWYRQAPGKERELVAGISSGGRTNYADSVKGRFTISRDNAKNTVYLQMISLKPEDTAVYYCNDRWYRYPPRVRLYYWGQGTQVTVSS	high polyreactivity
QVQLVESGGGLVQAGGSLRLSCAASGRIFGFYTMGWYRQAPGKERELVAVINRGGRTYYADSVKGRFTISRDNAKNTVYLQMNSLKPEDTAVYYCAADYYTQGAYRGMDYWGQGTQVTVSS	high polyreactivity
QVQLVESGGGLVHAGGSLRLSCAASGSNFGYNAMGWYIQAPGKERELVAAITSIGGNTYADSVKGRFTISRDNAKYTVYLQMNSLKPEDTAVYYCAAERNTDPIQVVYEFDYWGQGSQVTVSS	low polyreactivity
QVQLVESAGGLVQAGGSLRLSCAASGSIFGSYAMGGYRQAPGKERELVAAIYSSGGSTYYADSVKGRFTISRDNAKNTVYLQMNSLKPEDTAVYYCNKYVRYGDGYWGQGTQVTVSS	high polyreactivity
QVQLVESGGGLVQAGGSLRISCAASGFTFPYYAMGWYRQAPGKERELVAAISYNGGSTYYADSVKGRFTISRDNAKNTVYLQMNSLKPEDTAVYYCNAVYYDSGVVGYYYWGQGTQVTVSS	high polyreactivity
QVQLVESGGGLVQAGGSLRLSCAASGRIFAAYAMGWYRQAPGKERELVAAITWRGGSTYYADSVKGRFTISRDNAKNTVYLQMNSLKPEDTAVYYCNARVYYYPGYDYWGQGTQVTVSS	low polyreactivity
QVQLVESGGGLVHAGGSLRLSCSASGIIFYRYAMGWYRQAPGKERELVAAITWSGVSTSYADSVKGRFTISRDNAKNTVYLKMNSLKPEDTAVYYCNIDPGTLFGDMDSWGQGNQVTVSS	low polyreactivity
QVQLVESGGGLVQAGGSLRLSCAASGSIIGYYAMGWYRQARGKERELVAAISSSGASTYYADSVKGRFTISRDNAKYTVYLQMNSLKPEDTAVYYCNAARRYPTRGGYWGQGTQVTVSS	high polyreactivity

Sequence	polyreactivity (PSR sort gate)
QVQLVESGGGLVQAGGRLRLSCAASGITFSGYVLGWDRPAPGKERELVAAISSSGGRTYYADSVKGRFTISRDNAKNTVYLQMNSLKPEDTAVYYCAARFLYANRYSVDYDYWGQGTQVTVSS	high polyreactivity
QVHLVESGGGLVQAGGSLRLSSAASGSTFPVYAMGWYRQAPGKERELVASISSGGSTYYADSVQGRFTISRDNAKNSVYFQKNSLKPEDTAVYYCAKDPWVDSFVIYDDWGQGTEVTVSS	low polyreactivity
QVQLVESGGGLVQAGGSLRLSCAASGLIFDVNTMGWYRQAPRKERELVAAITGSGGRTYYADSVKGRFTISRDNAKNTVYLQMNSLKPEDNAVYYCNARHPASGDLYRMDYWGQGTQVTVSS	low polyreactivity
QVQLVESGGGLVQAGGSLRLSCAASGRIFSTYAMGWYRQAPGKERELVAAINKIGGSTYYADSVKGRFTISRDNAKNTDYLQMNSLKPEDSAVYYCAADAPYYPVRRYYYWGQGTQVTVSS	low polyreactivity
QVQLVESGGGLVQAGGSLRLSCAASGSTLGVYVMGWYRPAPGKERELVAAISRNGGSTYYADSVKGRFTISRDNAMNTVYLQMNSLKPEDTAVYYCAARTVGRKAGFDYWGQGTQVTVSS	high polyreactivity
QVQLVESGGGLVQAGGSLRLSCAASGRIFYVNTMGWYRQAPGKERELVATISSAASTNYADSVKGRFTISRDNAKNTVYLQMNSLKPEDTAVYYCNAAFYKEYFYWGQGTQVTVSS	low polyreactivity
QVQLVESGGGLVQAGGSLRLSCAASGRTFYRYAMGWYRQAPGKERELVAAITGGGRTYYADSVKGRFTISRDNAKNTVYLQMNSLKPEDTAVYDCAAVVLRRPAYDYWGQGTQVTVSS	low polyreactivity
QVQLVESGGGLVQAGGSLRLSCAASGSLFRSYAMGWYRQAPGKERELVAAISTRVVNTYYADSVKGRFTISRDNAKNTVYLQMNSLKPEDTAVYYCAALRYRITNVYYWGQGTQVTVSS	high polyreactivity
QVQLVESGGGLVQAGGSLRISCAASGFTFRKYTMGWYRQAPGKERELVAAISRRGGSTYYADSVKGRFTISRDNAKNTVYFQMNSLKPEVTAVYYCATDHIPSVGVDYWGQGTQVTVSS	high polyreactivity
QDQLVESGGCLVQAGGSLRLSCAASGSTFRSNAMGWYRQAPGKERELVAAISRGGSTNYADSVKGRFTISRDNAKNTVYLQMNSLKTEDTAVYYCNADWDYRDFYDITYDYWGQGTQVTVSS	low polyreactivity
QVQLVESGGGLVQAGGSLRLSCAASGGIFQWYAMGWYRQAPGKVREFVAAITRRGGSTYYAYSVKGRFTISRDNAKNTVYLQMNSLKPEDTAVYYCAARPWADFDYWGQGTQVTVSS	low polyreactivity
QVQLLESCGGLDQAGGSLRLSCAASGSTFGTNAMGWYRKAPGKERELVAAITSSGGSTNYADSVKWRFTISLDNANNSVYFQMNCLKPEDTAVYYCNDVSYSTTYGGDSWGQGTQVTVSS	low polyreactivity
QLQIVESGGGLVQAGGSLRLSCAASGSTFSYNAMGWYRQAPRKQRELVASISTSGGSTYYADSVKGRFTISRDNANNTVYLEMNSLKPEDTAVYYCNAPTSDIYSDFDSWGQGTQVTVSS	low polyreactivity
QVQLEEYGGGLVQAGGSLRLSCAAAGFTCGGYAMGWYRQAPGKDRELVATITRVGSTNYADSVKGRFTISRDNAKNTVYLQMNSLKPEDTAVYYCNTRRVYGHGNAPYDSWGQATQVTVSS	low polyreactivity
QVQLVESGGGLVQAGGRLRLSCAASGSIFYRSAMGWYRQAPGKERELVAAITRSDGRTYYADSVKGRFTISRDNAKNTVYLQMNSLKPEDTAVYYCNKDGAYKTAYKRWTLYDYWGQGTQVTVSS	low polyreactivity
QLQLVESGGGLVQAGGSLRLSCAASGLTFQYYDMGRYRQAPGKERELVDVIRGSGTSTYYADSVKGRFTISRDNAKNTVYLQMNCLKPEDTAVYYCAAPYQYRRTGRVLGKYDSWGQGTQVTVSS	high polyreactivity
QVQLVESGGGLVQAGGSLRLSSAASGSTFRYYVMGRYRQAAGKERELVAGISSRGGTTYYADSVKGRFTISRDNAKNTVYLQMNSLKPEDSAVYYCNADTAAAQASYDRLYVLLDYWGQGTQVTVSS	low polyreactivity
QVQLVESGGGLVQAGGSLRLISPASRFTFRYYAMGWYRQAPGKERELVAAISRGGTTNYADSVKGRFTISRDNAKNTVYLQMNSLKPEDTAVYYCATTRYDYWGQGTQVTVSS	high polyreactivity
QVQLVESGGGLVQAGGSLRLSCAASGRIFDANAMGWYRQAPGKERELVAAINLSGTSTYADSVKGRFTISRDNAKNTVYLQMNSLKPEDTAVYYCNKRSPSTIRFDYWGQGTQVTVSS	high polyreactivity
QVQLVESGGGLVQAGGSLRLSCAASGITFVKNAMGWYRQAPGKERELVARIRIGGSTSYADSVKGRFTISRDNAKNTVYLQMISLKPEDTAVYYCARYAGRLSYRYEYWGQGTQVTVSS	high polyreactivity
QVQLVESGGGLVQAGRSLRLSCAASGLTFVNYTMGCYRQAPGKEREFVAAITSSGGSSTYYADSVKGRFTHSRDNAKNTVYLQMNSLYPEDTAVYYCAAGFTLYVDIVILTVNTVDYWGQGTQVTVSS	low polyreactivity
